# Reference: patent US20260103526A1 (OSE IMMUNOTHERAPEUTICS, published 2026)
# T1: Fc-CLEC-1A (recombinant human Fc-CLEC-1 protein, OSE IMMUNOTHERAPEUTICS) (human, Alexa Fluor 488 label in the flow cytometry competition assays)
# T1 construct: also called hFc-CLEC; Fc-CLEC1-A488
# T1 chain: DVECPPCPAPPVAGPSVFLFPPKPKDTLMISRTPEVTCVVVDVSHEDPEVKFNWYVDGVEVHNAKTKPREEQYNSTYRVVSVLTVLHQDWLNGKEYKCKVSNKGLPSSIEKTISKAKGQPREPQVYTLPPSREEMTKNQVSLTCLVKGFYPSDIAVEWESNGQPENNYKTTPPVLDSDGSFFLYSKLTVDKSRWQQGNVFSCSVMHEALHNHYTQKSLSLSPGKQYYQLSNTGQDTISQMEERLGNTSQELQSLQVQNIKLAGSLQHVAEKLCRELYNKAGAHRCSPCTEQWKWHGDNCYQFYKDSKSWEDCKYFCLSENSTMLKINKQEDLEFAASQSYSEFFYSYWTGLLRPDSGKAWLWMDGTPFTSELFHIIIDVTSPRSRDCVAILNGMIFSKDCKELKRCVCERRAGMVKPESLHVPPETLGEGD
# T2: mice CLEC-1A protein (mouse, UniProt Q8BWY2 73-269, limits assumed)
# T2 construct: also called mice orthologue of CLEC-1A
# T2 sequence (looked up): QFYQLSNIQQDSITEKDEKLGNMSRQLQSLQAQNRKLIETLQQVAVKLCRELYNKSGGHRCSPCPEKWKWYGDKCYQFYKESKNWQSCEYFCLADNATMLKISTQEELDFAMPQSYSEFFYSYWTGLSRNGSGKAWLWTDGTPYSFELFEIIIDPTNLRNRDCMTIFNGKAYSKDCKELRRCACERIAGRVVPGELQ
# T3: recombinant hCLEC1-His (R&D SYSTEMS reference 1704-CL) (human, UniProt Q8NC01 74-280, limits assumed)
# T3 construct: Bought protein; also called CLEC-His; Clec-His; not shown: His tag
# T3 sequence: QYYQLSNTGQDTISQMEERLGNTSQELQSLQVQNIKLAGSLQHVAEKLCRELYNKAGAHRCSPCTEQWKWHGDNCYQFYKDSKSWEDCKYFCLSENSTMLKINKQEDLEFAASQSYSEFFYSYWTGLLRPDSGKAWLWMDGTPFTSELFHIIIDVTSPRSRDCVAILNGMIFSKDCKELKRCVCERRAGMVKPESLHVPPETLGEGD
# Key:
# [1] = target: T1, Fc-CLEC-1A (recombinant human Fc-CLEC-1 …); experiment: flow cytometry competition: antibody pre-incubated with A488-labelled human Fc-CLEC-1 (10 µg/mL), then binding to live Hepa1.6 cells (ligand m16); % hFc-CLEC-1+ cells normalised on hIgG4
# Text: (§1) Murine hepatoma Hepa 1.6 or colorectal carcinoma MC38 cell lines were also used in an antagonist assay. […] Finally, cells were fixed with 1% PFA solution and read on a cytometer.
# [2] = target: T1, Fc-CLEC-1A (recombinant human Fc-CLEC-1 …); experiment: flow cytometry competition: antibody pre-incubated with A488-labelled human Fc-CLEC-1 (10 µg/mL), then binding to live MC38 cells (ligand m16); % hFc-CLEC-1+ cells normalised on hIgG4
# Text: as §1
# [3] = target: T2, mice CLEC-1A protein; experiment: in vitro; assay not given
# [4] = target: T1, Fc-CLEC-1A (recombinant human Fc-CLEC-1 …); experiment: flow cytometry competition: antibody pre-incubated with A488-labelled Fc-CLEC1 (100 nM), then binding to permeabilised NALM6 cells (CLEC-1 ligand m15); % stained cells
# Protocol: Revelation was performed on CYTOFLEX cytometer, values corresponding to percentage of stained cells (%).
# To measure competition on NALM6 cells.
# [5] = target: T1, Fc-CLEC-1A (recombinant human Fc-CLEC-1 …); experiment: flow cytometry competition; inhibition of Fc-CLEC-1-A488 binding to Hepa 1.6 or MC38 cells; reference chimeric 11H11
# Text: as §1
# [6] = target: T3, recombinant hCLEC1-His (R&D SYSTEMS …); experiment: BLITZ: CLEC-His immobilised on a NINTA biosensor (10 µg/ml), antibody at 20 µg/ml, 120 s association and 120 s dissociation
# [7] = target: T1, Fc-CLEC-1A (recombinant human Fc-CLEC-1 …); experiment: flow cytometry competition; inhibition of Fc-CLEC-1-A488 binding to Hepa 1.6 or MC38 cells; reference chimeric 6C5
# Text: as §1
# [8] = target: T1, Fc-CLEC-1A (recombinant human Fc-CLEC-1 …); experiment: flow cytometry competition: antibody pre-incubated with A488-labelled Fc-CLEC1 (10 nM), then binding to permeabilised Raji cells (CLEC-1 ligand m15); % stained cells
# [9] = target: T1, Fc-CLEC-1A (recombinant human Fc-CLEC-1 …); experiment: flow cytometry competition; inhibition of Fc-CLEC-1-A488 binding to Hepa 1.6 cells; reference chimeric 14H9
# Text: as §1
Binder,EC50 [1] [mg/L],EC50 [2] [mg/L],binding result [3],IC50 (read off the curve) [4] [mg/L],"EC50 ratio, humanized against chimeric counterpart [5]",Kd [6] [nM],koff [6] [s⁻¹],kon [6] [M⁻¹ s⁻¹],"EC50 ratio, humanized against chimeric counterpart [7]",IC50 (read off the curve) [8] [mg/L],"EC50 ratio, humanized against chimeric counterpart [9]"
"chimeric 6C5 (antibody, V domains shown) VH: QVQLQQSGPELVKPGASVKMSCKASGYTFTDYVISWVKQKTGQGLEWIGEIYPGSGNTYYNEKFKGKATLTADKSSSTAYIHLSSLTSEDSAVYFCAGGGSSHFDYWGQGTTLTVSS VL: not shown",2.44,2.81,–,–,–,–,–,–,–,–,–
"humanized 11H11 (antibody, human IgG4, V domains shown, Only variable domains are tied to the antibody; also called hum 11H11) VH: QIQLVQSGSELKKPGASVKVSCKASGYTFTNFGMNWVRQAPGQGLEWMGWINTNTGEPTYADDFKGRFVFSLDTSVSTAYLQISSLKAEDTATYFCARGAPAWFTYWGQGTTVTVSS VL: DIQMTQSPSSLSASVGDRVTITCRASESIYSYLAWYQQKPGKAPKFLIYNAKTLASGVPSRFSGSGSGTDFTLTISSLQPEDFATYYCQHHFGTPLTFGQGTKLEIK",0.542,1.33,no binding,~3,≤ 0.5 fold (EC50 humanized / EC50 chimeric),0.301,7.19e-05,239000,–,–,–
"chimeric 14H9 (antibody, V domains shown) VH: QVQLKESGPGLVAPSQSLSITCTISGFSLTTYGIHWVRQPPGKGLEWLVVIWSDGSTIYNSALKSRLSISKDNSKSQVFLKMNSLQTDDTAIYYCARHGGYYNYFDYWGQGTTLTVSS VL: DIQMNQSPSSLSASLGDTITITCHASQNINVWLSWYQQKPGNIPKLLIYKASNLHTGVPSRFSGSGSGTTFTLTIDSLQPEDIATYYCQQGQSYWTFGGGTKLEIKR",2.72,–,–,–,–,–,–,–,–,–,–
"chimeric 11H11 (antibody, V domains shown) VH: QIHLVQSGPELKKPGETVKISCKASGYTFTNFGMNWVKQAPGKGLKWMGWINTNTGEPTYADDFKGRFAFSLETSASTAYLQINNLKNEDTATYFCARGAPAWFTYWGQGTLVTVSA VL: DIQMTQSPASLSASVGETVTITCRATENIYSYLAWYQQKQGKSPQFLVYNAKTLAEGMPSRFSGSGSGTQFSLKINILQPEDFGTYYCQHHFGTPLTFGAGTKLELKR",2.58,2.33,–,–,–,–,–,–,–,–,–
"humanized 6C5 (antibody, V domains shown, Only variable domains are tied to the antibody) VH: QVQLVQSGAEVKKPGSSVKMSCKASGYTFTDYVISWVRQAPGQGLEWMGEIYPGSGNTYYNQKFQGRVTLTADKSTSTAYMELSSLRSEDTAVYYCAGGGSSHFDYWGQGTTVTVSS VL: EIVLTQSPATLSLSPGERATLSCRASQSVDNHGFSFMNWFQQKPGQAPRLLIYAASNRGTGIPARFSGSGSGTDFTLTISSMEPEDFAVYYCQQSKEVPWTFGGGTKVEIK",1.06,0.522,no binding,~3,–,5.69,0.000275,48300,≤ 0.5 fold (EC50 humanized / EC50 chimeric),–,–
"humanized 14H9 (antibody, V domains shown, Only variable domains are tied to the antibody) VH: QVQLVESGGGVVQPGRSLRLSCAISGFTLTTYGIHWVRQAPGKGLEWVAVIWSDASTIYASSLKSRFTISKDNTKNTVYLQMTSLRAEDTAVYYCARHGGYYNYFDYWGQGTLVTVSS VL: DIQMTQSPSSLSASVGDRVTITCHASQNINVWLSWYQQKPGKAPKLLLYKASNLHTGVPSRFSGSGSGTDFTLTISSLQPEDIATYYCQQGQSYWTFGGGTKVEIK",0.539,–,no binding,~3,–,5.4,0.000419,77700,–,~0.2,≤ 0.5 fold (EC50 humanized / EC50 chimeric)
